# Test results: publication PMC10066039, “Bile salt hydrolases shape the bile acid landscape and restrict Clostridioides difficile growth in the murine gut” (Nature Microbiology, 2023)
# B1: LgasBSHa (enzyme, Lactobacillus gasseri, UniProt A0A805Z5R7 1-316, looked up)
# chain: MCTGLRFTDDQGNLYFGRNLDVGQDYGEGVIITPRNYPLPYKFLDNTTTKKAVIGMGIVVDGYPSYFDCFNEDGLGIAGLNFPHFAKFSDGPIDGKINLASYEIMLWVTQNFTKVSDVKEALKNVNLVNEAINSSFAVAPLHWIISDKDEAIIVEVSKQYGMKVFDDKLGVLTNSPDFNWHLTNLGNYTGLDPHDATAQSWNGQKVAPWGVGTGSLGLPGDSIPADRFVKAAYLNVNYPTVKGEKANVAKFFNILKSVAMIKGSVVNKLGSDEYTVYTACYSAATKTYYCNFENDFELKTYKLDDETMNADKLITY
# notes: bile salt hydrolase LgasBSHa (cluster gasseri_1), amplified from genomic DNA; selectivity loop GVG with V211 in its centre; catalytic cysteine at position 2; Crystallised with taurine and with taurine plus CDCA; also called taurine-preferring BSH; bile salt hydrolase; source: E. coli BL21-G, purified (HisTrap HP, Superdex 200)
# Columns and labels:
# Assay in all cases: crystal structure; crystals grown at 20 °C by sitting drop vapour diffusion (LgasBSHa with taurine and CDCA: hanging drop); data at 100 K; molecular replacement with PDB 2HEZ; homo-tetramer in the crystal structure
# [1] = target: LgasBSHb (Lactobacillus gasseri)
# [2] = target: LjohBSHc (johnsonii (cluster johnsonii_1, Lactobacillaceae))
# LreuBSH = target: LreuBSH
# LingBSH = target: LingBSH
# LaciBSHa = target: LaciBSHa
# [3] = target: the molecule itself
molecule,measurement,setting,value
LgasBSHb (from UniProt A0A805Z5R7 1-316) (enzyme),stoichiometry N,[1],4
LjohBSHc (from UniProt A0A805Z5R7 1-316) (enzyme),stoichiometry N,[2],4
LreuBSH (from UniProt A0A805Z5R7 1-316) (enzyme),stoichiometry N,LreuBSH,4
LingBSH (from UniProt A0A805Z5R7 1-316) (enzyme),stoichiometry N,LingBSH,4
LaciBSHa (from UniProt A0A805Z5R7 1-316) (enzyme),stoichiometry N,LaciBSHa,4
B1,stoichiometry N,[3],4
